In series [1] the target is T1, L7Ae (Pyrococcus furiosus, UniProt Q8U160 1-123). Briefly: EMSA; EMSA: annealed in 10 mM Tris-HCl, 100 mM NaCl, 1 mM EDTA, pH 7.5; 4 C, 10% native PAGE; 10 pmol Cy5-RNA (~2 uM) or 0.5 nmol unlabeled RNA. RNP: 20 mM Na phospha.
Series [2] deals with T2, Snu13 R95VP96A (Saccharomyces cerevisiae, UniProt P39990 1-126, R95V;P96A).
T2 sequence: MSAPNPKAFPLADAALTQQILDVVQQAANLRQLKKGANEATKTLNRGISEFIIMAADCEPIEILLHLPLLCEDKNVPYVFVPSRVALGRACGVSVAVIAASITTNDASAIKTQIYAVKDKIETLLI
Briefly: EMSA; EMSA: annealed in 10 mM Tris-HCl, 100 mM NaCl, 1 mM EDTA, pH 7.5; 4 C, 10% native PAGE; 10 pmol Cy5-RNA (~2 uM) or 0.5 nmol unlabeled RNA. RNP: 20 mM Na phosphate, 500 mM NaCl, pH 6.6. The following applies: protein: recombinant, tags: N-terminal His6, TEV-cleaved, label: 5'-Cy5.

For series [3], the target named is T3, Snu13 V93IR95V (Saccharomyces cerevisiae, UniProt P39990 1-126, V93I;R95V).
T3 sequence: T2 sequence with V93I, A96P
The description is as above. Particulars: protein: recombinant, tags: N-terminal His6, TEV-cleaved, label: 5'-Cy5.

Series [4] addresses T1, L7Ae. Briefly: EMSA; similar to snR51-kl1; EMSA: annealed in 10 mM Tris-HCl, 100 mM NaCl, 1 mM EDTA, pH 7.5; 4 C, 10% native PAGE; 10 pmol Cy5-RNA (~2 uM) or 0.5 nmol unlabeled RNA. RNP: 20 mM Na phospha.
Series [5] addresses T1, L7Ae. Briefly: EMSA; affinity not improved over snR51-kl1; EMSA: annealed in 10 mM Tris-HCl, 100 mM NaCl, 1 mM EDTA, pH 7.5; 4 C, 10% native PAGE; 10 pmol Cy5-RNA (~2 uM) or 0.5 nmol unlabeled RNA. RNP: 20 mM Na phospha.
The target of series [6] is T2, Snu13 R95VP96A. Briefly: EMSA; better than wild type; EMSA: annealed in 10 mM Tris-HCl, 100 mM NaCl, 1 mM EDTA, pH 7.5; 4 C, 10% native PAGE; 10 pmol Cy5-RNA (~2 uM) or 0.5 nmol unlabeled RNA. RNP: 20 mM Na phosphate, 500 mM NaCl, pH 6.6. Particulars: protein: recombinant; tags: N-terminal His6, TEV-cleaved; label: 5'-Cy5; k-turn.
In series [7] the target is T3, Snu13 V93IR95V. The series is described as above. Particulars: protein: recombinant; tags: N-terminal His6, TEV-cleaved; label: 5'-Cy5; k-turn.
Another series concerns the target T4, Snu13 R95VI98A (Saccharomyces cerevisiae, UniProt P39990 1-126, R95V;I98A).
T4 sequence: T2 sequence with A96P, I98A
Described as above. Particulars: protein: recombinant; tags: N-terminal His6, TEV-cleaved; label: 5'-Cy5; k-turn.

In a further series the target is T5, Snu13 (Saccharomyces cerevisiae, UniProt P39990 1-126).
T5 sequence: T2 sequence with V95R, A96P
As to the kind of experiment: EMSA (ethidium bromide); ~100 uM RNA; EMSA: annealed in 10 mM Tris-HCl, 100 mM NaCl, 1 mM EDTA, pH 7.5; 4 C, 10% native PAGE; 10 pmol Cy5-RNA (~2 uM) or 0.5 nmol unlabeled RNA. RNP: 20 mM Na phosphate, 500 mM NaCl, pH 6.6. Particulars: protein: recombinant; tags: N-terminal His6, TEV-cleaved; k-turn.

Residue numbers refer to the chain shown, from its start.

B1: snR54-kl1 (structured_RNA)
RNA: ACUGACUGUGAUCAAACGAUCUUGUAGA
For B1, the values for the binding result in the series with L7Ae [1], with Snu13 R95VP96A [2] (non-canonical k-turn) and in the series with Snu13 V93IR95V [3] (non-canonical k-turn) were “no binding”, “binds” and “binds”, respectively.

B2: snR51-kl4 (structured_RNA)
RNA: UACGAAAUAGUUGAUGA
Regarding B2, the binding result in the series with L7Ae [4] is given as “binds”.

B3: snR54-kl3 (structured_RNA)
RNA: ACUGAAAUAGUUGUAGA
On to B3, for which the binding result in the series with Snu13 V93IR95V [3] (k-loop) is reported as “binds”.

B4: snR51-kl3 (structured_RNA)
RNA: UACUAAAUAGUUGAUGA
Take B4: the binding result in the series with Snu13 V93IR95V [3] (k-loop) is reported as “binds”.

B5: snR51-kl1 (structured_RNA)
RNA: UACUAGAUUGGUCUCUUUCAAGAAGGGGCUAAUUGAUGA
On to B5, for which the Kd with L7Ae [1] is < 141 nM.

B6: snR51-kl2 (structured_RNA)
RNA: B5 RNA with U4G
B6: the binding result with L7Ae [5], in the series with Snu13 R95VP96A [6], with Snu13 V93IR95V [7] and with Snu13 R95VI98A was “binds” each time.

B7: snR51-kl2 unlabeled (structured_RNA)
RNA: B5 RNA with U4G
B7: the binding result with Snu13 is reported as “binds”.

B8: snR54-kl2 (structured_RNA)
RNA: ACUGACUGUGAUCAAACGAUCUUGAAGA
As for B8, the binding result with Snu13 R95VP96A [2] and in the series with Snu13 V93IR95V [3] was “binds” throughout.

These data come from paper PMC8413462, “Eukaryotic Box C/D methylation machinery has two non-symmetric protein assembly sites”.
